“And” between values parts separate entries of the source, which are not always exact repeats. Equal entries are not always repeated.

The target of one assay is β1 integrin (human, UniProt P05556 21-798). In words: cell-based or functional assay.
The next assay has as its target T1, β3 integrin (human, UniProt P05106 27-788).
T1 construct: also called β3 integrins
Nature of the assay: His-tag pull-down on nickel beads from NHDF lysate, Western blot for β3 integrin. Background: In western blotting, separated proteins are transferred to a membrane and probed.

Chain of β1 integrin (P05556 21-798): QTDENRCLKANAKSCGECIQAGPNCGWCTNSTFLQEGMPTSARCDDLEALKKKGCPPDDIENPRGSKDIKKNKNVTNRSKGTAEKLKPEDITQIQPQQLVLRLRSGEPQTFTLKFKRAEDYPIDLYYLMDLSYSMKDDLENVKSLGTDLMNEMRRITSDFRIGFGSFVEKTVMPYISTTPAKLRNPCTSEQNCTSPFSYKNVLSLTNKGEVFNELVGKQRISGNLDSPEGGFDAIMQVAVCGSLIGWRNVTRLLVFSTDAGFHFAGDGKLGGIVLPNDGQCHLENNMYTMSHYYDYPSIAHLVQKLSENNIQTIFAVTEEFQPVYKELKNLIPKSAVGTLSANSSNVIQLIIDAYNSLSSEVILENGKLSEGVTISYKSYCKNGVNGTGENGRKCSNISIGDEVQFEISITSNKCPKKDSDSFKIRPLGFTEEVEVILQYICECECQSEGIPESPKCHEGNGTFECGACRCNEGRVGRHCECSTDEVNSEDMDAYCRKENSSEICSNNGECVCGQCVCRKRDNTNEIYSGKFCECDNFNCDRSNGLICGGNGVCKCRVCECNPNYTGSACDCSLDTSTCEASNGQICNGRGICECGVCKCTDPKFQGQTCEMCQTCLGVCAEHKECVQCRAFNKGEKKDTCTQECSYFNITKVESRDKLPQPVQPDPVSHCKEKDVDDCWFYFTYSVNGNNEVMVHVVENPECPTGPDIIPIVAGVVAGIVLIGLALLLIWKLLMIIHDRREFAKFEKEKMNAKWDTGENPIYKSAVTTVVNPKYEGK
T1 sequence (P05106 27-788 limits assumed): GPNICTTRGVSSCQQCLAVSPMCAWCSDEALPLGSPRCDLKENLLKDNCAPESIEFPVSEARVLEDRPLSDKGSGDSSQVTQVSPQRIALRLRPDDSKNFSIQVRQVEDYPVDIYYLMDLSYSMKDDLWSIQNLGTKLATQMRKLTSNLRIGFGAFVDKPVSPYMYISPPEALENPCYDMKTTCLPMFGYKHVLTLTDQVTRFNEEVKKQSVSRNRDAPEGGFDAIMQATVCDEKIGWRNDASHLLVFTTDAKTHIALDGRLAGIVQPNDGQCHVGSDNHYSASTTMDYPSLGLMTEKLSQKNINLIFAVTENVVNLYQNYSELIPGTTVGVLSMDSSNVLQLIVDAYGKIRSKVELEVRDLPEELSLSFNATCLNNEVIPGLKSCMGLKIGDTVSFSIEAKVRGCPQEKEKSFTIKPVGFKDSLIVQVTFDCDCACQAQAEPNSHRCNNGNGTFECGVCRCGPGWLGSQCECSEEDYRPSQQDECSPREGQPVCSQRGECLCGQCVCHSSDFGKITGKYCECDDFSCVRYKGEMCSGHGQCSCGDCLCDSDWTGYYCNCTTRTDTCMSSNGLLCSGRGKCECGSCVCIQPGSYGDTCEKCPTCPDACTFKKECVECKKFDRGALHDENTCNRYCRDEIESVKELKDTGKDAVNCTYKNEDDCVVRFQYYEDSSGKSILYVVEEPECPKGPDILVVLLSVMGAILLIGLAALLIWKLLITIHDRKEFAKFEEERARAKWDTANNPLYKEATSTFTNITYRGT

B1: HCMV AD169 glycoprotein B disintegrin-like domain (amino acids 57-146), His-tagged, expressed in E. coli (other)
chain: VTSSEAVSHRANETIYNTTLKYGDVVGVNTTKYPYRVCSMAQGTDLIRFERNIICTSMKPINEDLDEGIMVVYKRNIVAHTFKVRVYQKV
notes: range 57-146; also called gBDLD; gBDLD fragment; not shown: N-terminal His-Tag with thrombin cleavage site from vector pET-28a
Turning to B1, the “IC50 for HCMV neutralization (HCMV-GFP infectivity of NHDFs, flow cytometry)” value with β1 integrin was 20.5 µg/mL and 1.96 µM. In addition, the binding result with β3 integrin is “no binding (tested: 20 µg gBDLD in 350 µL cell lysate)”.

The values above are taken from US20150104466A1 (WISCONSIN ALUMNI RESEARCH FOUNDATION, published 2015).
